Values quoted from earlier work, collected in publication PMC4449288.

Biological target: mAKAPβ (Homo sapiens) (UniProt Q13023)
Assay: SPR

Chain of UniProt Q13023 (Q13023 whole entry): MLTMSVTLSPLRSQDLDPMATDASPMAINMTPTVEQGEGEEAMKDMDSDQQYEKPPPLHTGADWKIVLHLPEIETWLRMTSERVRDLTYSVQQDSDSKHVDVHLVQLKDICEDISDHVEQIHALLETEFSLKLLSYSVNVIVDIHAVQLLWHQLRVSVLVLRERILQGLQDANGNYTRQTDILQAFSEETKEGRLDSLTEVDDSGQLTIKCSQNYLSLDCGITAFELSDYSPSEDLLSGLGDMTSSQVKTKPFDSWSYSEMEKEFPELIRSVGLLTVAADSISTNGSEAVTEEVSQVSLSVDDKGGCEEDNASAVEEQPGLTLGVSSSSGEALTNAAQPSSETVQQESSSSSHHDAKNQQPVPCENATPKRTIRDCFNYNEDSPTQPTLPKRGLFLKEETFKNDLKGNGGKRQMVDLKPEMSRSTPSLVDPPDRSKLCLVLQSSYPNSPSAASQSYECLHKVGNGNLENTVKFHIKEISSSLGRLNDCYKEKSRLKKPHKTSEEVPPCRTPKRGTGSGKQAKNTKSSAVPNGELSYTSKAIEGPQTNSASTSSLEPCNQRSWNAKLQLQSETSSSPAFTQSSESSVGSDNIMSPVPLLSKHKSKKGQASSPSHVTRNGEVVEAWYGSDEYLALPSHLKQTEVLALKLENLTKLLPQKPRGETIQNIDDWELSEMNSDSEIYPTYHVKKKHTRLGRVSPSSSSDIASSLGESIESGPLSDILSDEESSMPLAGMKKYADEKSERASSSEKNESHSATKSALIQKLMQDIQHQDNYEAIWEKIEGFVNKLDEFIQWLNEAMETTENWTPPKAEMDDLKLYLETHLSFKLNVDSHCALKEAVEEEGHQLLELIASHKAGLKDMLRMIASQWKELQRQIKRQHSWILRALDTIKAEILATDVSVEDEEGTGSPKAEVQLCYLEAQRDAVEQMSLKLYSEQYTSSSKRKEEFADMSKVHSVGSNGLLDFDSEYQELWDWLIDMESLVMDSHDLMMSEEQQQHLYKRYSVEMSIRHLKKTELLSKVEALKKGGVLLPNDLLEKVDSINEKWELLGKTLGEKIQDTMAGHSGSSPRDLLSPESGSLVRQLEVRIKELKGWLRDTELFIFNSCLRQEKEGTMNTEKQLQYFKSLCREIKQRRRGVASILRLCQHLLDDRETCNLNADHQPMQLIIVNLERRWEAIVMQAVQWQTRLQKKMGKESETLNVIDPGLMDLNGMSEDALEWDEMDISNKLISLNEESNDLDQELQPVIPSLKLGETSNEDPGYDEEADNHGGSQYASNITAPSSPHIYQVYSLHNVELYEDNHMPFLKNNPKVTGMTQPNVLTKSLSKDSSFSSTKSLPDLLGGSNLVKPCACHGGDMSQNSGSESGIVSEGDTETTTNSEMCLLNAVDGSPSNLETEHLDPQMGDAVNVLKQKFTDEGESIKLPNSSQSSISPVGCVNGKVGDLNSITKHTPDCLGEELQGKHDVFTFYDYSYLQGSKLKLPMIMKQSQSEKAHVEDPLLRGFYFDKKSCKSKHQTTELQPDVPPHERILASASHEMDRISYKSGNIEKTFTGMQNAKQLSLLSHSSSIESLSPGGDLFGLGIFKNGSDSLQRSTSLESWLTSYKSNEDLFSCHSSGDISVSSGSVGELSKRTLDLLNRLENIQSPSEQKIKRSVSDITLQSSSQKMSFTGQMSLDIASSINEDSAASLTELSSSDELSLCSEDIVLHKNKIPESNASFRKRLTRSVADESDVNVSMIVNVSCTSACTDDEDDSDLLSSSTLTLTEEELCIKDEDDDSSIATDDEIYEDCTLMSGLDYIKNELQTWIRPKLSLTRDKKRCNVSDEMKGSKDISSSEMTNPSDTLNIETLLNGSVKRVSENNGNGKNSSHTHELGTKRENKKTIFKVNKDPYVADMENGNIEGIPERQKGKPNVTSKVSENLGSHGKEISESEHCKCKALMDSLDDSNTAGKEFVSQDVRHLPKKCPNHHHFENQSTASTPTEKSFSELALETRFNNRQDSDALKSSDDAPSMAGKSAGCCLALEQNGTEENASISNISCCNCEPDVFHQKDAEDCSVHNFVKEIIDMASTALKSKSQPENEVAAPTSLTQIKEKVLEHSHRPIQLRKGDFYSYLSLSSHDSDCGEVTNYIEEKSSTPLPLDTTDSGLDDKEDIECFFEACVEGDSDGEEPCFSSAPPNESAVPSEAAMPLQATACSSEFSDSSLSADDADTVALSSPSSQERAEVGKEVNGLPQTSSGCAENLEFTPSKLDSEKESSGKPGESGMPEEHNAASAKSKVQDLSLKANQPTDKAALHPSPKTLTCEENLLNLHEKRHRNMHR

RSK3 (from UniProt Q15349)
Kd: 1.6 nM
